{"source": "patent US20220315908A1", "about": "“NOVEL GARDNERELLA ENDOLYSINS AND USES THEREOF” (priority 2019, published 2022)", "molecules": {"B1": {"name": "H6B6: natural Gardnerella prophage endolysin from strain 1400E, truncated at the C-terminus (protein)", "chain": "MSKKGIDVSVWQGDIDFNAVKASGVEFVIIRAGYGIGCKDKWFEQNYRKAKTCGLDVGAYWYSYANSGFEAAEEAQSCVNMLSGKSFEYPVYFDLEEKSQLNRGRAFCDSLITSFCSKLESCGYYAGFYTSLSTANNLVSAHVRNRYALWIAQWNTHCDYQGSYGLWQYSSSGSVPGVAGRVDMDYAYKNYPSIIKNAGLNGCKNGGSNQAARTSSIDDVAREVINGAWGNGNERKQRLTQAGYDYASVAK", "modifications": "EL6_strain_1400E_frameshift", "notes": "natural Gardnerella prophage endolysin from strain 1400E, truncated at the C-terminus"}}, "key": {"[1]": {"tested_on": "all tested Gardnerella strains", "experiment": "MIC and MBC microbroth dilution, stated over all tested strains", "type": "cell-based", "details": "first round: […]10^7 CFU/ml, 48 h anaerobic (FIG. 14)", "description": "One of the main deficiencies in the treatment of BV is the high rate of recurrence in many women, which leads to repeated administration of antibiotics and concomitant destabilization of the microbiome and other side effects. The minimal inhibitory concentration (MIC) and minimal bactericidal concentration (MBC) on Gardnerella cells of the strains also used for the endolysin activity assays were then measured using the method described in Reference Example 6 and 7. […] Essentially, Gardnerella suspensions at 2.5×10^7 CFU/ml were incubated with the concentration of antibiotics as indicated and incubated for 48 h at 37° C. under anaerobic conditions. […] OD(610) was measured at the beginning and the end of the experiment. At the end of the experiment, 2 ul of each reaction mix was spotted on agar to determine the MBC.\nThe conditions under which MIC and MBC were measured are more rigorous than the standard.\nExample 7—Activity assays of a representative (H2B10) of domain swapped endolysins on the growth in suspension of different Gardnerella strains. […] The conditions under which MBC was measured are more rigorous than the standard. […] In general, it is known, that antibiotics only insufficiently eradicate the Gardnerella biofilm, a hallmark of BV, which is one suspected reason for the reported very high recurrence rate of BV. Despite leaving residual viable biofilm, antibiotics wipe parts of the beneficial organisms of the vaginal microbiome which then opens an ecological niche for other pathogens, e.g. fungi.\nBacteria were plated from cryo stock on BD Choc Agar plates (Gardnerella) and incubated at 37° C. for 48 h under anaerobic conditions. Colonies were scraped from the plate, resuspended in Hardy Broth or NYC-III-HS-pH 5.0, and the suspension adjusted to OD (610 or 620 nm as indicated) 0.05. It has to be noted that two Tecan Microplate readers, having respectively a 610 nm or 620 nm filter, have been used interchangeably in the experiments. Although it doesn't make any difference for the experiments, the exact wavelength used is specified in each example. Antibiotics were prepared as 20× stocks for each of the required final concentrations. […] OD (610-620 as indicated) at the start of the reaction was measured, then the plate was incubated at 37° C. for 48 h under anaerobic conditions. After that, the OD (610-620 as indicated) was measured again for MIC determination, where MIC was defined as the lowest concentration of antibiotic where the OD (610-620 as indicated) was not above the level measured at the beginning of the experiment. […] After incubation, cell growth on each spot was evaluated, and the MBC defined as the lowest concentration of antibiotics where no bacteria grew on the plate."}, "[2]": {"tested_on": "G. vaginalis sensu stricto strain Gv_9", "experiment": "Quantitative reduction in viable CFU assay in bacterial suspension", "type": "cell-based, Gardnerella vaginalis sensu stricto", "details": "for median surviving cells after incubation with imidazole: 5×10^7 CFU/ml start, 5 hours 37° C. anaerobic", "description": "The lysis activity on the four main species of Gardnerella of 91 constructs (natural and domain-swapped endolysins) was quantitatively assessed using the method described in Reference Example 2. […]\n(§1) The results are shown in FIGS. 8A to 8D together with Tables 5A to 5C. In FIGS. 8A to 8D, the logarithmic Y axis depicts the count of surviving cells. The dotted line indicates the limit of detection (LOD) given by plating of 2 ul of the reaction mix (500 CFU/ml). Each combination of the natural 10 H-domains and the natural 9 B-regions was assessed, including the natural endolysins (H1B1, H2B2, H3B3, etc.), plus H6B6. […] The activity of each construct was measured on each of the 4 main Gardnerella species G. vaginalis sensu stricto, G. leopoldii, G. piotii, and G. swidsinkii. All conditions have been measured in triplicate. The survival after 5 hours incubation at pH 5.0 under anaerobic conditions with endolysins vs. buffer was measured by quantitative plating. The values indicate the log 10 of the ratio of surviving CFU for treated vs. untreated cells. The average of the triplicate measurements is used. In tables 5A and 5B, high negative log 10 values, e.g. −6.7, −5.5, −4.8 etc. are associated with high enzymatic activity, while log 10 values closer to zero or even positive log 10 values are associated with low or no enzymatic activity. […] Inversely, a reduction value of −3.7 means a 10^3.7-fold (=5012-fold) reduction of viable CFU in treated sample vs. untreated control.\n(§2) Gardnerella cells were recovered from cryo stock by plating on Chocolate Agar plates (Beckton Dickinson) and incubating for 48 h at 37° C. under anaerobic conditions. For Lactobacilli, BD Schaedler/5% sheep blood agar plates were used instead. Colonies were scraped from the plate, resuspended in Hardy Broth or NYC-III-HS-5.0 at the pH as indicated, and the suspension adjusted to OD (610 or 620 nm as indicated) 0.1. It has to be noted that two Tecan Microplate readers, having respectively a 610 nm or 620 nm filter, have been used interchangeably in the experiments. Although it doesn't make any difference for the experiments, the exact wavelength used is specified in each example. If not stated otherwise, 90 μl cell suspension was mixed with 10 μl endolysin solution, for the different species/endolysin combinations, in 384-well plates. OD(610-620 nm as indicated) was measured at the beginning of the reaction and at the end, either as two measurement points or as a continuous kinetic in a Tecan F200 Microplate reader. The reactions were incubated for 5 hours (or otherwise the time indicated) at 37° C. under anaerobic, micro-aerophilic or aerobic conditions as indicated. Anaerobic conditions intend that oxygen was fully depleted from the container in which the bacteria are incubated (Sigma-Aldrich anaerobic jar or sealable lunch box) with an anaerobic sachet, and the lack of oxygen was confirmed with an anaerobic indicator inside the container. Where micro-aerophilic conditions are indicated, the candle-in-a-jar method was used (tea candle lit in an appropriate sealable container, which reduces oxygen levels until the flame dies out). Then each well was diluted in 5 steps (10^−1 to 10^−5) using 96-U-well bottom plates, and 2 μl of each dilution of each reaction mix are plated on BD Chocolate agar plates or BD Schaedler/5% sheep blood agar plates for Gardnerella and Lactobacilli, respectively, for detecting and quantifying surviving CFU. Detection plates were incubated at 37° C. for 48 hours under anaerobic conditions."}, "[3]": {"tested_on": "G. leopoldii strain Gv_11", "experiment": "Quantitative reduction in viable CFU assay in bacterial suspension", "type": "cell-based, Gardnerella leopoldii", "details": "5 hours, pH 5.0, anaerobic, 10 ul endolysin (0.2 mg/ml where possible) + 90 ul 5e7 CFU/ml, average of triplicate", "description": "(§3) The lysis activity on the four main species of Gardnerella of 91 constructs (natural and domain-swapped endolysins) was quantitatively assessed using the method described in Reference Example 2. Briefly, 90 ul 5e7 CFU/ml of the indicated strain were incubated for 5 hours at pH 5.0 under anaerobic conditions with 10 ul endolysin (concentration adjusted to 0.2 mg/ml where possible, see Table 4).\nas §1, §2"}, "[4]": {"tested_on": "G. swidsinskii strain Gv_23", "experiment": "Quantitative reduction in viable CFU assay in bacterial suspension", "type": "cell-based, Gardnerella swidsinskii", "details": "5 hours, pH 5.0, anaerobic, 10 ul endolysin (0.2 mg/ml where possible) + 90 ul 5e7 CFU/ml, average of triplicate", "description": "as §3, §1, §2"}, "G. piotii strain Gv_17": {"tested_on": "G. piotii strain Gv_17", "experiment": "Quantitative reduction in viable CFU assay in bacterial suspension", "type": "cell-based, Gardnerella piotii", "details": "5 hours, pH 5.0, anaerobic, 10 ul endolysin (0.2 mg/ml where possible) + 90 ul 5e7 CFU/ml, average of triplicate", "description": "as §3, §1, §2"}, "[5]": {"tested_on": "four Gardnerella strains (Gv_9, Gv_11, Gv_17, Gv_23)", "experiment": "CFU reduction averaged across the four Gardnerella strains, with activity ranks", "type": "cell-based", "description": "as §3, §1\nas §2, with “out).” for “out). Then each well was diluted in 5 steps (10^−1 to 10^−5) using 96-U-well bottom plates, and 2 μl of each dilution of each reaction mix are plated on BD Chocolate agar plates or BD Schaedler/5% sheep blood agar plates for Gardnerella and Lactobacilli, respectively, for detecting and quantifying surviving CFU. Detection plates were incubated at 37° C. for 48 hours under anaerobic conditions.”"}}, "data": [{"molecule": "CCC[C@@H]1C[C@@H](C(=O)N[C@@H]([C@H]2O[C@H](SC)[C@H](O)[C@@H](O)[C@H]2O)[C@H](C)Cl)N(C)C1", "note": "[Clindamycin]", "values": [{"measurement": "MIC over all Gardnerella strains", "setting": "[1]", "value": "> 8", "unit": "µg/mL"}]}, {"molecule": "c1c[nH]cn1", "note": "[imidazole]", "values": [{"measurement": "median surviving cells after incubation with imidazole", "setting": "[2]; pH 6.0", "value": "1×10^6 CFU/ml"}, {"measurement": "median surviving cells after incubation with imidazole", "setting": "[2]; pH 7.0", "value": "3×10^4 CFU/ml"}]}, {"molecule": "B1", "values": [{"measurement": "log 10 of the ratio of surviving CFU for treated vs. untreated cells", "setting": "[3]", "value": 0.2, "unit": "log 10"}, {"measurement": "log 10 of the ratio of surviving CFU for treated vs. untreated cells", "setting": "[4]", "value": "−0.1", "unit": "log 10"}, {"measurement": "log 10 of the ratio of surviving CFU for treated vs. untreated cells", "setting": "[2]; Gv_9, 5 hours, pH 5.0, anaerobic, 10 ul endolysin (0.2 mg/ml where possible) + 90 ul 5e7 CFU/ml, average of triplicate", "value": 0.1, "unit": "log 10"}, {"measurement": "log 10 of the ratio of surviving CFU for treated vs. untreated cells", "setting": "G. piotii strain Gv_17", "value": "−0.2", "unit": "log 10"}, {"measurement": "killing activity against Gardnerella, in words", "setting": "[5]; across the Gardnerella strains tested", "value": "complete inactivity"}, {"measurement": "average of the log 10 activities of each construct across the four Gardnerella strains", "setting": "[5]; pH 5.0, 5 hours, anaerobic", "value": 0.0, "unit": "log 10"}, {"measurement": "activity rank of all endolysins", "setting": "[5]; rank 1-91, based on the data of Table 5B", "value": 86}]}]}
